Among the data in publication PMC8041770 (2021) are ratio to parent values, retold here.

Sequences and labels used below:
B1: yeast-displayed wild-type human LIFR CBM I–Ig-like domains (Gln45 to Gln337) [human] / recombinant human LIF, histidine-tagged (hLIF-His) [human] (parent complex)
chain 1: QKKGAPHDLKCVTNNLQVWNCSWKAPSGTGRGTDYEVCIENRSRSCYQLEKTSIKIPALSHGDYEITINSLHDFGSSTSKFTLNEQNVSLIPDTPEILNLSADFSTSTLYLKWNDRGSVFPHRSNVIWEIKVLRKESMELVKLVTHNTTLNGKDTLHHWSWASDMPLECAIHFVEIRCYIDNLHFSGLEEWSDWSPVKNISWIPDSQTKVFPQDKVILVGSDITFCCVSQEKVLSALIGHTNCPLIHLDGENVAIKIRNISVSASSGTNVVFTTEDNIFGTVIFAGYPPDTPQ
chain 2: not shown

The variants in the assay derive from B1. Briefly: flow cytometry of yeast-displayed LIFR variants; parent: 1; read off a plot.
As to chain 1 L218P, chain 1 H240R, chain 1 N242D, chain 1 I257V, chain 1 I260V, chain 1 V262A, chain 1 T273I, chain 1 N277D, the ratio to parent was roughly 13.

In the case of chain 1 I217V, chain 1 L218P, chain 1 N242D, chain 1 V262A, chain 1 T273I, chain 1 N277D, the ratio to parent is roughly 6.

For the variant chain 1 I217V, chain 1 L218P, chain 1 N242D, chain 1 I257V, chain 1 I260V, chain 1 V262A, chain 1 T273I, chain 1 N277D, the ratio to parent was roughly 12.

As to chain 1 L218P, chain 1 H240R, chain 1 I257V, chain 1 V262A, chain 1 T273I, chain 1 N277D, the ratio to parent is roughly 12.

As to chain 1 L218P, chain 1 N242D, chain 1 I257V, chain 1 N277D, the ratio to parent was roughly 6.

As to chain 1 L218P, chain 1 H240R, chain 1 I257V, chain 1 I260V, chain 1 V262A, chain 1 T273I, chain 1 N277D, the ratio to parent is roughly 15.

For the variant chain 1 I217V, chain 1 L218P, chain 1 H240R, chain 1 N242D, chain 1 I257V, chain 1 I260V, chain 1 V262A, chain 1 T273I, chain 1 N277D, the ratio to parent was roughly 13.
